Source: the DeepSol protein solubility set

Experiment: soluble on expression in E. coli; label from the status in PepcDB or PDB records

Row | Sequence | soluble on expression in E. coli
1 | MAHHHHHHMEQFLNQVAASNKTVKCIKGALQIYDTYGEVFSLVHERRYEEAGIICTHFSDHIGQLFLGTTDGNCLVYYHDERSGDEQRSGVEERSGDDLYGDADRCGVPPVGRKKKGGVLEYLHKGVKRKRERASFYTNSEHIYNLDSLPKEIKITDAGDVLIKKDLINAKVKMNPKLSSFTANAYEKKRQVGMYSKYIVDANPSGKDPSSSQTNKGNEYEEEDIVEKLRKREQSKQGGDYFMNAYKYTQPSAIIDYSSGEEQEYSQLLKKPKCPQCGVKNCVCGFMRSGGRRAR | not soluble
2 | MSLEGFIEGSSLTVLNRNFYFNRDNRDSTAPTYNSGKGNTNGYSEAWAHAIISKFNSGFTQGTVGFGVDAFAMIGLKLDTGDGRNGGRSSFDVLPVDNKGEARDEYTKVGGAAKVRLFDTIVKVGDVFPSTPVVASGDSRLLPESFRGVTVENTSIQGLTLQGGRLHAMSQPVSSNLNDNFVTFYGGPVNSPWIGYGGGDYSINDNWTVSVYASQLKDVWNQYYAGTSVVYPLSDDLALIGGFNYYKAVDEGKKRLGEFDNNIWSAKVGVRYGAHTLALSHQRNNGDDDFDYLRQSDSIFVDNSIQYSDFNSPKERSWMLRYDLNFTSYGIPGLTFMTRYARGSGADYSNANQFYMRTDDNGNPLDNQKRWERDVEVKYVVQTGPAKDLSFRLRQATTRATAFESDLDETRVIIEYPLSILEGHHHHHH | soluble
3 | MSDRHMSSIFPECDHLKQIYDKCFTEFFQKFITPNYRHQYAVNPCERLHDVYKRCVEERLATQRPFEIDLDEIRKEYLNTDDDKLKDRQNNQKTNSENKCSSS | not soluble
4 | MGSDKIHHHHHHMAKYLYGRRVKLVLLTPHESVTFDYKQTETHSMGIQFNVPFSDSSTPPTCTVTIMNLSAKHRKLFKKGYEVKLYAGYAEDGVGLLSAGVIRAISPFTSDGTNNTFSFTYREGQEYSKLLSSAEKANKKADEARKKKAKVIGKKAAAGLPKIKKHSALSFGKNTAASTIIRRIASDAGITLSKVYLAKPKKYKKGYAAHGKPITNIKAIAKACGSKVYYRRGSIVIDDLSKVKGHNEHILVTEHVKGRHGGTGLIQYPTTDSDSMAKHKTWTVTSLLRYQVSTGSVVTVENRFLKGTFRVKSGEHVCDDSAFTTAMEVYV | not soluble
5 | MGSDKIHHHHHHMQNGYYQATGGMVTQFNKLDVITNNLANINTSGYKRDDVVIADFKRIFKETQDELPIENHTRDASRFVNTTIDGIPQVSQEYTDFSLGSLKATNNPLDLAMTREDAFYLVQTKDGEVRLTKDGNFQLDDEGYLVNKQGYKVLSSDYFNNPQNAGIRIPNGAVQISVDKNGSIEVDGAQNARLFVAQVDDIRALQKDGDNVYKIDDLTRIRDLKNSNAIRQGFSQGSNVNPVTEMVGLIEANRMVEMYQKVMTAHMDDLNQEAINKLAAVK | not soluble
6 | MGMTRNLLAAGLAAVLALPALAAELVMVEQHGCEWCARWNEEIAPIYPKTAEGAFAPLRRVDLRAIPADLETARRVVFTPTFLIVEDGRELARLEGYPGEDFFWPLLEQLLVDHAGFVPKKPGSS | not soluble
7 | MGSDKIHHHHHHMIDPESLEALEAVVDAGSLSAAAGQLNKAVSAVGYHLRRLEEQIGVPLLDRSGYRLALTPEGKSVLAEGRPILERLRALGTFAERYHGGWEHQLRIVYDGALPAEVVIGAINALVEAGAPTHIELNVAYLGAVPFEFDRKQADVMIATAWEPRLDLIGHRLATLGFSLCCAAGHPLTMRTNVSLEELQRETELIIPGLAEDRSFDARHFRSRRILKVSDFNTKLIAIRRGLGFGWLPDYLASDLVRKGNLARVRLEGGNSYELQPVFALHRGAAPGRARQMLLDMLLLATWDTYVKPE | not soluble
8 | MREQQPDVPPAEPANDVVAPPPLMDLGPPVNPMLPLDLPYNVVREIGIAVSSKITILLLRTPNYKLD | not soluble
9 | MGISSSAPESLGFDTVLPPHLRQHSHPPAGISPKRFLCRDLWPAELPSPAVSSAVSGPTWPEGISAPVFGKQTHVPQRTGSQDCHSCDPTLPEWERKIPP | not soluble
10 | MSLYKVYGDYRSGNCYKIKLMLNLLGLPYEWQAVDILGGDTQTEAFLAKNPNGKIPVLELEDGTCLWESNAILNFLADGSQFLPSEPRLRTQVLQWQFFEQYSHEPYIAVARFIQLYEGLPEERREEYLKLHKRGYKALDVMEKQLSRTPYLVGEHYSIADIALYAYTHVADEGGFDLSRYPGIQAWMQRVQSHPRHVPMLDEGHHHHHH | soluble
11 | MGSDKIHHHHHHMRPIQRKRVPGLNAWEARWYHGTKWVRVSSANGKSRRARRFSLMVLGGWVMERAQHNLRFTELARARAYAQAHGLRQKAVCHIVRRGTELLVFDHVPDGGAGVQVVAGGLEAGETPEQAALREAGEETGQDGFQVVGFLGSAVWLNTEHAKRELRHFVHLTAPDDLPDTWQHCADGHLFSFRWEPLHSARVDWEMDAFLPELG | not soluble
12 | MSLKTLATIGDNCVDIYPQLNKAFSGGNAVNVAVYCTRYGIQPGCITWVGDDDYGTKLKQDLARMGVDISHVHTKHGVTAQTQVELHDNDRVFGDYTEGVMADFALSEEDYAWLAQYDIVHAAIWGHAEDAFPQLHAAGKLTAFDFSDKWDSPLWQTLVPHLDFAFASAPQEDEALRLKMKAIVARGAGTVIVTLGENGSIAWDGAQFWRQAPEPVTVIDTMGAGDSFIAGFLCGWSAGMTLPQAMAQGTACAAKTIQYHGAEGHHHHHH | soluble
13 | MNRTLYTLLFHLGLPLVALRLWWRARQAPAYAKRIGERFSLSLPEVPPGGIWVHAVSVGESIAAAPMVRALLERHPQLPVTVTCMTPTGSERIRALFGEQVRHCYLPYDLPWAAARFLDRVRPRLAVIMETELWPNHIHACAVRGIPVALANARLSERSARGYARFAGLTRPMLAELSWIAVQTEAEAERFRRLGARPECVSVTGSIKFDLRIDPQLPLAAAALREEWDATARPLWIAASTHAGEDEIVLAAHRRLLETRPDALLILVPRHPERFAGVHELCRREGFATVRRSGGEPVARATQVLLGDTMGELLFLYALADIAFVGGSLVPNGGHNLLEPAALGKPVFAGPHLFNFLDIAAQLRDAGALLEVTDAGELCDGLARLWAQPEVATAMATAGEKVLRNNQGALERLLAGLARLLGRGG | not soluble
14 | MKICLQAGAVKQIENYFSISTDGVEIRIWFLTDSVVRIRAGFDGDFVEESYSLVTTAWEDRMDMFMKHYRKRIQTAEAQLTDGLEKAVIQGKVLRVEVEKNPFRICVYDAENTQIHADIVDLAYMEDSNNRRIHTSEITEDDCFY | not soluble
15 | MMKEASEPLASVTSINKQDSKVQDGEIRKEKIGTITPSKQHSSVHFFPKIMDSDSTTLIPLSRSFSQEMPIGFYQITSTQNSSTLSSRGQLASKSTILSCSHKDSSLGKQSTSSMVPRRQPQSSSDVDTYTFGNGEDYFLSLFGESKKLTAHTPQAENVSEHLSVILEEVGQFTSSSLGEIKIAEVNIKGLFVRLVNSSNEKEVEIGNHILQQNVNGHAVSLYQFPDNITLQANSTVTVWAAASEAKPQPPTDFVWEEQSKFRSSPDCTTILCKPNGEAIAWYTPIHWKQAWEKLETDIEFERCSVVVPSMRNHMFGWITASVSSTNEEKEEPIQKTPSQVYPVLYREKEIPPTVLPNKSPWCRNPNTSPHPYSSLIDSHDSDISESSLDTQLKPQPTKPKPDPGTKKKKAKS | soluble
16 | MTSYDQIWETFLNNCETSDFDVPQQEEDIYKSIRNAILHFNNRLRDNLKADNSTETVNRELSEDDLLILAHFLRYIFLLNKKTLFENTWQPFTNDVGIKNFGTQLNSLKQSVMDQKDEIERLILNAAVDYLLEHHHHHH | not soluble
17 | MKMKLAVLPGDGIGPEVMDAAIRVLKTVLDNDGHEAVFENALIGGAAIDEAGTPLPEETLDICRRSDAILLGAVGGPKWDHNPASLRPEKGLLGLRKEMGLFANLRPVKAYATLLNASPLKRERVENVDLVIVRELTGGLYFGRPSERRGPGENEVVDTLAYTREEIERIIEKAFQLAQIRRKKLASVDKANVLESSRMWREIAEETAKKYPDVELSHMLVDSTSMQLIANPGQFDVIVTENMFGDILSDEASVITGSLGMLPSASLRSDRFGMYEPVHGSAPDIAGQGKANPLGTVLSAALMLRYSFGLEKEAAAIEKAVDDVLQDGYCTGDLQVANGKVVSTIELTDRLIEKLNNSAAGPRIFQ | soluble
18 | KRGRSVLVLDHAKKPGRKILISGGGRCNFTNYDVSASNYLCQNPHFVKSALSQYTNWDFISMVSKHGIEFEERDHGQLFCVDAFTAKDIVKMLLAECDMPNIQQRYQCDVHTIEKTEEGFRLHAGTEPVECESLVVATGGLSMPKLGATPFGYKVAEQ | not soluble
19 | MEKKTIVLGVIGSDCHAVGNKILDHSFTNAGFNVVNIGVLSSQEDFINAAIETKADLICVSSLYGQGEIDCKGLREKCDEAGLKGIKLFVGGNIVVGKQNWPDVEQRFKAMGFDRVYPPGTSPETTIADMKEVLGVE | soluble
20 | MVVGDFPIETDTIVIGAGPGGYVAAIRAAQLGQKVTIVEKGNLGGVCLNVGCIPSKALLHASHRFVEAQHSENLGVIAESVSLNFQKVQEFKSSVVNKLTGGVEGLLKGNKVNIVKGEAYFVDNNSLRVMDEKSAQTYNFKNAIIATGSRPIEIPNFKFGKRVIDSTGALNLQEVPGKLVVVGGGYIGSELGTAFANFGSEVTILEGAKDILGGFEKQMTQPVKKGMKEKGVEIVTEAMAKSAEETDNGVKVTYEAKGEEKTIEADYVLVTVGRRPNTDELGLEELGVKFADRGLLEVDKQSRTSISNIYAIGDIVPGLPLAHKASYEAKVAAEAIDGQAAEVDYIGMPAVCFTEPELATVGYSEAQAKEEGLAIKASKFPYAANGRALSLDDTNGFVKLITLKEDDTLIGAQVVGTGASDIISELGLAIEAGMNAEDIALTIHAHPTLGEMTMEAAEKAIGYPIHTM | not soluble
21 | MSLEGEVEKTQAKGSIILATTTSTSDSGLLDYLLPEFTKDTGIEAKVVAVGTGQALQMGKDGEADVLLVHSKAAEEEFVAAGDGLERKDVMYNDFILVGPANDPLKLKQELPNDIVGALKKISEQKFKFISRGDDSGTHKKELALWTEVGITPEGDYYVSAGRGMGDVLKMADEMQAYTIADRGTYLSMKADLGLDIIVEKDTNLFNQYGVIPVNPDKNENINAEGAKAFEEWILSEKAQSLIGEYGKEKYGAPLFTPNAAKEGHHHHHH | soluble
22 | SDLSWIKPGKVAWDWWNDWNLDGVDFVTGVNNPTYKAYIDFASANGIEYVILDEGWAVNLQADLMQVVKEIDLKELVDYAASKNVGIILWAGYHAFERDMENVCRHYAEMGVKGFKVDFMDRDDQEMTAFNYRAAEMCAKYKLILDLHGTHKPAG | not soluble
23 | MSTMKDEIEKVPASQYKGQDFQPLAEKSAIAHAKKYREEYEKLGEQFFKDNFSLNVKATNVVGSGDGAEVYVHCDDHDIVFNASIPFDMESIHEEGSMRSNDNGDTMSMMVGTVLSGFEYRANKEKMDNLEKYLKDKEDKYHYTGFTDEAITKTQNIGYQNNYFYITTSSTKLRDYRKHFEPLIKESDDDFKKHMKQLKSKKDTYINTEITTTLFSTLDEYDEKIIRKNTLSMAKEMRKEPSIPHNFTFHLLFSNNKLKINDPNISNNQINEYRVFDHDGFKNLEHHHHHH | soluble
24 | MTNLEIEYKTLLTKNEYNRLLSQMKHVTPVTQTNYYIDTKAFDLKANKMSLRIRTFVNSAELTLKVPEKVGNREYNVPLFLEQAKDMIKHGNLPESTALDIIISKGIKPSALVTFGNLTTVRRETVIPIGKLALDYNLYANTKDYELELEVSDALQGKIDFDSFLSEYHITFKYAKSKVARCINTLKKFNDK | not soluble
25 | MSQATKRKHVVKEVLGEHIVPSNQQQIVRVLRTPGNNLHEVETAQGQRFLVSMPSKYRKNIWIKRGDFLIVDPIEEGEKVKAEISFVLCKDHVRSLQKEGFWPEAFSEVAEKHNNRNRQTQPELPAEPQLSGEESSSEDDSDLFVNTNRRQYHESEEESEEEEAA | soluble
